Measured values published in patent publication US12303551B2, “Cellular immunotherapy compositions and uses thereof” (CERO THERPEUTICS HOLDINGS, INC., priority 2018, dated 2025).

B1: CER106: Chimeric engulfment receptor: Tim4 binding, Tim4 transmembrane, NFAM1 and TLR8 signaling; SEQ ID NO: 141 (protein)
chain: MSKGLLLLWLVTELWWLYLTPAASEDTIIGFLGQPVTLPCHYLSWSQSRNSMCWGKGSCPNSKCNAELLRTDGTRIISRKSTKYTLLGKVQFGEVSLTISNTNRGDSGVYCCRIEVPGWFNDVKKNVRLELRRATTTKKPTTTTRPTTTPYVTTTTPELLPTTVMTTSVLPTTTPPQTLATTAFSTAVTTCPSTTPGSFSQETTKGSAFTTESETLPASNHSQRSMMTISTDIAVLRPTGSNPGILPSTSQLTTQKTTLTTSESLQKTTKSHQINSRQTILIIACCVGFVLMVLLFLAFLLWNKKRMRGPGKDPTRKCPDPRSASSPKQHPSESVYTALQRRETEVYACIENEDGSSPTAKQSPLSQERPHRFEDDGELNLVYENLHHLFYWDVWFIYNVCLAKVKGYRSLSTSQTFYDAYISYDTKDASVTDWVINELRYHLEESRDKNVLLCLEERDWDPGLAIIDNLMQSINQSKKTVFVLTKKYAKSWNFKTAFYLALQRLMDENMDVIIFILLEPVLQHSQYLRLRQRICKSSILQWPDNPKAEGLFWQTLRNVVLTENDSRYNNMYVDSIKQY
modifications: CER106, amino acids 1-22 are signal peptide
B2: CER27: Chimeric engulfment receptor: Tim4 binding, Tim4 transmembrane, TLR2 signaling; SEQ ID NO: 98 (protein)
chain: MSKGLLLLWLVTELWWLYLTPAASEDTIIGFLGQPVTLPCHYLSWSQSRNSMCWGKGSCPNSKCNAELLRTDGTRIISRKSTKYTLLGKVQFGEVSLTISNTNRGDSGVYCCRIEVPGWFNDVKKNVRLELRRATTTKKPTTTTRPTTTPYVTTTTPELLPTTVMTTSVLPTTTPPQTLATTAFSTAVTTCPSTTPGSFSQETTKGSAFTTESETLPASNHSQRSMMTISTDIAVLRPTGSNPGILPSTSQLTTQKTTLTTSESLQKTTKSHQINSRQTILIIACCVGFVLMVLLFLAFLHRFHGLWYMKMMWAWLQAKRKPRKAPSRNICYDAFVSYSERDAYWVENLMVQELENFNPPFKLCLHKRDFIPGKWIIDNIIDSIEKSHKTVFVLSENFVKSEWCKYELDFSHFRLFDENNDAAILILLEPIEKKAIPQRFCKLRKIMNTKTYLEWPMDEAQREGFWVNLRAAIKS
modifications: CER27, amino acids 1-22 are signal peptide
B3: CER103B: Chimeric engulfment receptor: Tim4 binding, Tim4 transmembrane, TLR8 and CD79b (185-213) signaling; SEQ ID NO: 138 (protein)
chain: MSKGLLLLWLVTELWWLYLTPAASEDTIIGFLGQPVTLPCHYLSWSQSRNSMCWGKGSCPNSKCNAELLRTDGTRIISRKSTKYTLLGKVQFGEVSLTISNTNRGDSGVYCCRIEVPGWFNDVKKNVRLELRRATTTKKPTTTTRPTTTPYVTTTTPELLPTTVMTTSVLPTTTPPQTLATTAFSTAVTTCPSTTPGSFSQETTKGSAFTTESETLPASNHSQRSMMTISTDIAVLRPTGSNPGILPSTSQLTTQKTTLTTSESLQKTTKSHQINSRQTILIIACCVGFVLMVLLFLAFLHHLFYWDVWFIYNVCLAKVKGYRSLSTSQTFYDAYISYDTKDASVTDWVINELRYHLEESRDKNVLLCLEERDWDPGLAIIDNLMQSINQSKKTVFVLTKKYAKSWNFKTAFYLALQRLMDENMDVIIFILLEPVLQHSQYLRLRQRICKSSILQWPDNPKAEGLFWQTLRNVVLTENDSRYNNMYVDSIKQYDSKAGMEEDHTYEGLDIDQTATYEDIVTL
modifications: CER103B, amino acids 1-22 are signal peptide
B4: CER105: Chimeric engulfment receptor: Tim4 binding, Tim4 transmembrane, TLR8 and Baff-R signaling; SEQ ID NO: 140 (protein)
chain: MSKGLLLLWLVTELWWLYLTPAASEDTIIGFLGQPVTLPCHYLSWSQSRNSMCWGKGSCPNSKCNAELLRTDGTRIISRKSTKYTLLGKVQFGEVSLTISNTNRGDSGVYCCRIEVPGWFNDVKKNVRLELRRATTTKKPTTTTRPTTTPYVTTTTPELLPTTVMTTSVLPTTTPPQTLATTAFSTAVTTCPSTTPGSFSQETTKGSAFTTESETLPASNHSQRSMMTISTDIAVLRPTGSNPGILPSTSQLTTQKTTLTTSESLQKTTKSHQINSRQTILIIACCVGFVLMVLLFLAFLHHLFYWDVWFIYNVCLAKVKGYRSLSTSQTFYDAYISYDTKDASVTDWVINELRYHLEESRDKNVLLCLEERDWDPGLAIIDNLMQSINQSKKTVFVLTKKYAKSWNFKTAFYLALQRLMDENMDVIIFILLEPVLQHSQYLRLRQRICKSSILQWPDNPKAEGLFWQTLRNVVLTENDSRYNNMYVDSIKQYSWRRRQRRLRGASSAEAPDGDKDAPEPLDKVIILSPGISDATAPAWPPPGEDPGTTPPGHSVPVPATELGSTELVTTKTAGPEQQ
modifications: CER105, amino acids 1-22 are signal peptide

tested on: SCC152 cells; assay: Elimination of GFP-expressing SCC152 target cells over time (quantification and time lapse imaging); type: cell-based; conditions: 96-well co-culture, CD8+/E7 TCR + CD4+/CER + SCC152 1:1:1, compared to control
Method: Target SCC152 cells were co-cultured with CD8+ T cells transduced with HPV E7 TCR+CD4+ T cells transduced with a selected CER, or controls (CD8+ T cell transduced with HPV E7 TCR+CD4+ transduced control) at a 1:1:1 ratio. The number of target cells were quantified using imaging software. 0 hours, 24 hours, and 48 hours are shown from left to right.
FIG. 21 is time lapse imaging from 96-well co-culture experiments comprising CD8+ T cells transduced with HPV16 E7 TCR+CD4+ T cells transduced with CER5, CER17 or CER19 incubated with SCC152 target cells at a 1:1:1 ratio. SCC152 HPV+ target cells were quantified using automated cell counting software.
FIG. 22 is time lapse imaging from 96-well co-culture experiments comprising CD8+ T cells transduced with HPV16 E7 TCR+CD4+ T cells transduced with CER21, CER23 or CER26 incubated with SCC152 target cells at a 1:1:1 ratio. SCC152 HPV+ target cells were quantified using automated cell counting software.
FIG. 23 is time lapse imaging from 96-well co-culture experiments comprising CD8+ T cells transduced with HPV16 E7 TCR+CD4+ T cells transduced with CER103b, CER104 or CER105 incubated with SCC152 target cells at a 1:1:1 ratio. SCC152 HPV+ target cells were quantified using automated cell counting software.
FIG. 24 is time lapse imaging from 96-well co-culture experiments comprising CD8+ T cells transduced with HPV16 E7 TCR+CD4+ T cells transduced with CER106, CER116 or CER27 incubated with SCC152 target cells at a 1:1:1 ratio. SCC152 HPV+ target cells were quantified using automated cell counting software.
FIG. 57 is a bar graph showing quantification of loss of SCC152 HPV16+ target cells over time during co-culture assays. SCC152 cells were transduced with green fluorescent protein (GFP) and co-cultured with CD8+ T cells transduced with HPV16 E7 TCR and CD4+ T cells transduced with a selected CER (CER29, CER30, CER110, CER112, CER113, CER114, CER116, or CER117) or a CD4+ T cell control at a 1:1:1 ratio (CD8:CD4:target cell). The number of target cells was quantified at various time points during co-culture (0 hrs, 12 hrs, 24 hrs, and 36 hrs) using fluorescence microscopy and imaging software.
FIG. 58 are fluorescence micrograph images of the co-culture assay described in FIG. 57, showing clearance of the SCC152 cells (pink) as co-culture with CD8+ T cells transduced with HPV16 E7 TCR and CD4+ T cells transduced with a selected CER (columns from left to right: control, CER29, CER30, CER110, or CER112) progresses (rows from top to bottom: 0 hrs, 12 hrs, 24 hrs, and 36 hrs).
FIG. 59 are fluorescence micrograph images of the co-culture assay described in FIG. 57, showing clearance of the SCC152 cells (pink) as co-culture with CD8+ T cells transduced with HPV16 E7 TCR and CD4+ T cells transduced with a selected CER (columns from left to right: control, CER113, CER114, CER116, or CER117) progresses (rows from top to bottom: 0 hrs, 12 hrs, 24 hrs, and 36 hrs).
Elimination of target SCC152 cells was also detected by quantifying green fluorescent protein expression by SCC152 cells over time (0 hr, 24 hr, 48 hr) during co-incubation with CD8+ T cells transduced with HPV16 E7 specific TCR+ CD4 T cells transduced with selected CER (see, FIG. 20).
Elimination of target SCC152 cells was also detected by quantifying green fluorescent protein expression by SCC152 cells over time (0 hr, 12 hr, 24 hr, 36 hr) during co-incubation with CD8+ T cells transduced with HPV16 E7 specific TCR+ CD4+ T cells transduced with selected CER (CER29, CER30, CER110, CER112, CER113, CER114, CER116, or CER117) (see, FIG. 57).

Molecule	number of SCC152 cells in time lapse imaging
B1	decreasing in numbers over time
B2	decreasing in numbers over time
B3	decreasing in numbers over time
B4	decreasing in numbers over time
